Reference: the supplement of paper PMC12338614
± gives the uncertainty stated by the source.

B1: library; numbered along this chain (parent)
chain: MEVVDPQQLGMFTEGELMSVGMDTFIHRIDSTEVIYQPRRKRAKLIGKYLMGDLLGEGSYGKVKEVLDSETLCRRAVKILKKKKLRRIPNGEANVKKEIQLLRRLRHKNVIQLVDVLYNEEKQKMYMVMEYCVCGMQEMLDSVPEKRFPVCQAHGYFCQLIDGLEYLHSQGIVHKDIKPGNLLLTTGGTLKISDLGVAEALHPFAADDTCRTSQGSPAFQPPEIANGLDTFSGFKVDIWSAGVTLYNITTGLYPFEGDNIYKLFENIGKGSYAIPGDCGPPLSDLLKGMLEYEPAKRFSIRQIRQHSWFRKKHPPAEAPVPIPPSPDTKDRWRSMTVVPYLEDLHGADEDEDLFDIEDDIIYTQDFTVPGQVPEEEASHNGQRRGLPKAVCMNGTEAAQLSTKSRAEGRAPNPARKACSASSKIRRLSACKQQ

Variants of: B1
Experiment: STK11 functional score (HeLa growth suppression), rescaled enrichment; synonymous median = 1, nonsense median = 0 (normalised score)
Conditions: with HeLa; variant type: missense
Protocol: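 Deep mutational scan (TileSeq/POPCode codon randomisation) of full-length codon-optimised STK11 cDNA integrated at a Bxb1 landing pad (AAVS1) in HeLa cells. Restoring functional STK11 suppresses HeLa proliferation. Variant frequencies were measured by NGS before and after about two weeks of growth. The error-corrected enrichment log-ratio was rescaled so that synonymous median = 1 and nonsense median = 0, scores above 1 were compressed, and codon-level and three biological replicate scores were combined; error is the bootstrapped standard error. Scale: synonymous median = 1, nonsense median = 0; below 0.5 = damaging.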
MEVVDPQQLGMFTEGELMSVGMDTFIHRIDSTEVIYQPRRKRAKLIGKYLMGDLLGEGSYGKVKEMLDSETLCRRAVKILKKKKLRRIPNGEANVKKEIQLLRRLRHKNVIQLVDVLYNEEKQKMYMVMEYCVCGMQEMLDSVPEKRFPVCQAHGYFCQLIDGLEYLHSQGIVHKDIKPGNLLLTTGGTLKISDLGVAEALHPFAADDTCRTSQGSPAFQPPEIANGLDTFSGFKVDIWSAGVTLYNITTGLYPFEGDNIYKLFENIGKGSYAIPGDCGPPLSDLLKGMLEYEPAKRFSIRQIRQHSWFRKKHPPAEAPVPIPPSPDTKDRWRSMTVVPYLEDLHGADEDEDLFDIEDDIIYTQDFTVPGQVPEEEASHNGQRRGLPKAVCMNGTEAAQLSTKSRAEGRAPNPARKACSASSKIRRLSACKQQ [V66M] was tested, and the STK11 functional score was -0.0689 ± 0.32.
MEVVDPQQLGMFTEGELMSVGMDTFIHRIDSTEVIYQPRRKRAKLIGKYLMGDLLGEGSYGKVKENLDSETLCRRAVKILKKKKLRRIPNGEANVKKEIQLLRRLRHKNVIQLVDVLYNEEKQKMYMVMEYCVCGMQEMLDSVPEKRFPVCQAHGYFCQLIDGLEYLHSQGIVHKDIKPGNLLLTTGGTLKISDLGVAEALHPFAADDTCRTSQGSPAFQPPEIANGLDTFSGFKVDIWSAGVTLYNITTGLYPFEGDNIYKLFENIGKGSYAIPGDCGPPLSDLLKGMLEYEPAKRFSIRQIRQHSWFRKKHPPAEAPVPIPPSPDTKDRWRSMTVVPYLEDLHGADEDEDLFDIEDDIIYTQDFTVPGQVPEEEASHNGQRRGLPKAVCMNGTEAAQLSTKSRAEGRAPNPARKACSASSKIRRLSACKQQ [V66N] showed an STK11 functional score of 0.393 ± 0.24.
MEVVDPQQLGMFTEGELMSVGMDTFIHRIDSTEVIYQPRRKRAKLIGKYLMGDLLGEGSYGKVKEKLDSETLCRRAVKILKKKKLRRIPNGEANVKKEIQLLRRLRHKNVIQLVDVLYNEEKQKMYMVMEYCVCGMQEMLDSVPEKRFPVCQAHGYFCQLIDGLEYLHSQGIVHKDIKPGNLLLTTGGTLKISDLGVAEALHPFAADDTCRTSQGSPAFQPPEIANGLDTFSGFKVDIWSAGVTLYNITTGLYPFEGDNIYKLFENIGKGSYAIPGDCGPPLSDLLKGMLEYEPAKRFSIRQIRQHSWFRKKHPPAEAPVPIPPSPDTKDRWRSMTVVPYLEDLHGADEDEDLFDIEDDIIYTQDFTVPGQVPEEEASHNGQRRGLPKAVCMNGTEAAQLSTKSRAEGRAPNPARKACSASSKIRRLSACKQQ [V66K] was tested, and the STK11 functional score was 1.4 ± 0.37.
MEVVDPQQLGMFTEGELMSVGMDTFIHRIDSTEVIYQPRRKRAKLIGKYLMGDLLGEGSYGKVKEPLDSETLCRRAVKILKKKKLRRIPNGEANVKKEIQLLRRLRHKNVIQLVDVLYNEEKQKMYMVMEYCVCGMQEMLDSVPEKRFPVCQAHGYFCQLIDGLEYLHSQGIVHKDIKPGNLLLTTGGTLKISDLGVAEALHPFAADDTCRTSQGSPAFQPPEIANGLDTFSGFKVDIWSAGVTLYNITTGLYPFEGDNIYKLFENIGKGSYAIPGDCGPPLSDLLKGMLEYEPAKRFSIRQIRQHSWFRKKHPPAEAPVPIPPSPDTKDRWRSMTVVPYLEDLHGADEDEDLFDIEDDIIYTQDFTVPGQVPEEEASHNGQRRGLPKAVCMNGTEAAQLSTKSRAEGRAPNPARKACSASSKIRRLSACKQQ [V66P] showed an STK11 functional score of 0.219 ± 0.12.
MEVVDPQQLGMFTEGELMSVGMDTFIHRIDSTEVIYQPRRKRAKLIGKYLMGDLLGEGSYGKVKETLDSETLCRRAVKILKKKKLRRIPNGEANVKKEIQLLRRLRHKNVIQLVDVLYNEEKQKMYMVMEYCVCGMQEMLDSVPEKRFPVCQAHGYFCQLIDGLEYLHSQGIVHKDIKPGNLLLTTGGTLKISDLGVAEALHPFAADDTCRTSQGSPAFQPPEIANGLDTFSGFKVDIWSAGVTLYNITTGLYPFEGDNIYKLFENIGKGSYAIPGDCGPPLSDLLKGMLEYEPAKRFSIRQIRQHSWFRKKHPPAEAPVPIPPSPDTKDRWRSMTVVPYLEDLHGADEDEDLFDIEDDIIYTQDFTVPGQVPEEEASHNGQRRGLPKAVCMNGTEAAQLSTKSRAEGRAPNPARKACSASSKIRRLSACKQQ [V66T] was tested, and the STK11 functional score was 1.12 ± 0.32.
For MEVVDPQQLGMFTEGELMSVGMDTFIHRIDSTEVIYQPRRKRAKLIGKYLMGDLLGEGSYGKVKEWLDSETLCRRAVKILKKKKLRRIPNGEANVKKEIQLLRRLRHKNVIQLVDVLYNEEKQKMYMVMEYCVCGMQEMLDSVPEKRFPVCQAHGYFCQLIDGLEYLHSQGIVHKDIKPGNLLLTTGGTLKISDLGVAEALHPFAADDTCRTSQGSPAFQPPEIANGLDTFSGFKVDIWSAGVTLYNITTGLYPFEGDNIYKLFENIGKGSYAIPGDCGPPLSDLLKGMLEYEPAKRFSIRQIRQHSWFRKKHPPAEAPVPIPPSPDTKDRWRSMTVVPYLEDLHGADEDEDLFDIEDDIIYTQDFTVPGQVPEEEASHNGQRRGLPKAVCMNGTEAAQLSTKSRAEGRAPNPARKACSASSKIRRLSACKQQ [V66W], the STK11 functional score was 0.62 ± 0.19.
MEVVDPQQLGMFTEGELMSVGMDTFIHRIDSTEVIYQPRRKRAKLIGKYLMGDLLGEGSYGKVKESLDSETLCRRAVKILKKKKLRRIPNGEANVKKEIQLLRRLRHKNVIQLVDVLYNEEKQKMYMVMEYCVCGMQEMLDSVPEKRFPVCQAHGYFCQLIDGLEYLHSQGIVHKDIKPGNLLLTTGGTLKISDLGVAEALHPFAADDTCRTSQGSPAFQPPEIANGLDTFSGFKVDIWSAGVTLYNITTGLYPFEGDNIYKLFENIGKGSYAIPGDCGPPLSDLLKGMLEYEPAKRFSIRQIRQHSWFRKKHPPAEAPVPIPPSPDTKDRWRSMTVVPYLEDLHGADEDEDLFDIEDDIIYTQDFTVPGQVPEEEASHNGQRRGLPKAVCMNGTEAAQLSTKSRAEGRAPNPARKACSASSKIRRLSACKQQ [V66S] was tested, and the STK11 functional score was 0.975 ± 0.13.
MEVVDPQQLGMFTEGELMSVGMDTFIHRIDSTEVIYQPRRKRAKLIGKYLMGDLLGEGSYGKVKEQLDSETLCRRAVKILKKKKLRRIPNGEANVKKEIQLLRRLRHKNVIQLVDVLYNEEKQKMYMVMEYCVCGMQEMLDSVPEKRFPVCQAHGYFCQLIDGLEYLHSQGIVHKDIKPGNLLLTTGGTLKISDLGVAEALHPFAADDTCRTSQGSPAFQPPEIANGLDTFSGFKVDIWSAGVTLYNITTGLYPFEGDNIYKLFENIGKGSYAIPGDCGPPLSDLLKGMLEYEPAKRFSIRQIRQHSWFRKKHPPAEAPVPIPPSPDTKDRWRSMTVVPYLEDLHGADEDEDLFDIEDDIIYTQDFTVPGQVPEEEASHNGQRRGLPKAVCMNGTEAAQLSTKSRAEGRAPNPARKACSASSKIRRLSACKQQ [V66Q] was tested, and the STK11 functional score was 1.08 ± 0.41.
MEVVDPQQLGMFTEGELMSVGMDTFIHRIDSTEVIYQPRRKRAKLIGKYLMGDLLGEGSYGKVKEILDSETLCRRAVKILKKKKLRRIPNGEANVKKEIQLLRRLRHKNVIQLVDVLYNEEKQKMYMVMEYCVCGMQEMLDSVPEKRFPVCQAHGYFCQLIDGLEYLHSQGIVHKDIKPGNLLLTTGGTLKISDLGVAEALHPFAADDTCRTSQGSPAFQPPEIANGLDTFSGFKVDIWSAGVTLYNITTGLYPFEGDNIYKLFENIGKGSYAIPGDCGPPLSDLLKGMLEYEPAKRFSIRQIRQHSWFRKKHPPAEAPVPIPPSPDTKDRWRSMTVVPYLEDLHGADEDEDLFDIEDDIIYTQDFTVPGQVPEEEASHNGQRRGLPKAVCMNGTEAAQLSTKSRAEGRAPNPARKACSASSKIRRLSACKQQ [V66I] was tested, and the STK11 functional score was 0.557 ± 1.1.
MEVVDPQQLGMFTEGELMSVGMDTFIHRIDSTEVIYQPRRKRAKLIGKYLMGDLLGEGSYGKVKEGLDSETLCRRAVKILKKKKLRRIPNGEANVKKEIQLLRRLRHKNVIQLVDVLYNEEKQKMYMVMEYCVCGMQEMLDSVPEKRFPVCQAHGYFCQLIDGLEYLHSQGIVHKDIKPGNLLLTTGGTLKISDLGVAEALHPFAADDTCRTSQGSPAFQPPEIANGLDTFSGFKVDIWSAGVTLYNITTGLYPFEGDNIYKLFENIGKGSYAIPGDCGPPLSDLLKGMLEYEPAKRFSIRQIRQHSWFRKKHPPAEAPVPIPPSPDTKDRWRSMTVVPYLEDLHGADEDEDLFDIEDDIIYTQDFTVPGQVPEEEASHNGQRRGLPKAVCMNGTEAAQLSTKSRAEGRAPNPARKACSASSKIRRLSACKQQ [V66G] gave an STK11 functional score of 0.814 ± 0.17.
In the case of MEVVDPQQLGMFTEGELMSVGMDTFIHRIDSTEVIYQPRRKRAKLIGKYLMGDLLGEGSYGKVKERLDSETLCRRAVKILKKKKLRRIPNGEANVKKEIQLLRRLRHKNVIQLVDVLYNEEKQKMYMVMEYCVCGMQEMLDSVPEKRFPVCQAHGYFCQLIDGLEYLHSQGIVHKDIKPGNLLLTTGGTLKISDLGVAEALHPFAADDTCRTSQGSPAFQPPEIANGLDTFSGFKVDIWSAGVTLYNITTGLYPFEGDNIYKLFENIGKGSYAIPGDCGPPLSDLLKGMLEYEPAKRFSIRQIRQHSWFRKKHPPAEAPVPIPPSPDTKDRWRSMTVVPYLEDLHGADEDEDLFDIEDDIIYTQDFTVPGQVPEEEASHNGQRRGLPKAVCMNGTEAAQLSTKSRAEGRAPNPARKACSASSKIRRLSACKQQ [V66R], the STK11 functional score is reported as -0.0455 ± 0.097.
Variant MEVVDPQQLGMFTEGELMSVGMDTFIHRIDSTEVIYQPRRKRAKLIGKYLMGDLLGEGSYGKVKEYLDSETLCRRAVKILKKKKLRRIPNGEANVKKEIQLLRRLRHKNVIQLVDVLYNEEKQKMYMVMEYCVCGMQEMLDSVPEKRFPVCQAHGYFCQLIDGLEYLHSQGIVHKDIKPGNLLLTTGGTLKISDLGVAEALHPFAADDTCRTSQGSPAFQPPEIANGLDTFSGFKVDIWSAGVTLYNITTGLYPFEGDNIYKLFENIGKGSYAIPGDCGPPLSDLLKGMLEYEPAKRFSIRQIRQHSWFRKKHPPAEAPVPIPPSPDTKDRWRSMTVVPYLEDLHGADEDEDLFDIEDDIIYTQDFTVPGQVPEEEASHNGQRRGLPKAVCMNGTEAAQLSTKSRAEGRAPNPARKACSASSKIRRLSACKQQ [V66Y] has an STK11 functional score of 1.12 ± 0.38.
MEVVDPQQLGMFTEGELMSVGMDTFIHRIDSTEVIYQPRRKRAKLIGKYLMGDLLGEGSYGKVKELLDSETLCRRAVKILKKKKLRRIPNGEANVKKEIQLLRRLRHKNVIQLVDVLYNEEKQKMYMVMEYCVCGMQEMLDSVPEKRFPVCQAHGYFCQLIDGLEYLHSQGIVHKDIKPGNLLLTTGGTLKISDLGVAEALHPFAADDTCRTSQGSPAFQPPEIANGLDTFSGFKVDIWSAGVTLYNITTGLYPFEGDNIYKLFENIGKGSYAIPGDCGPPLSDLLKGMLEYEPAKRFSIRQIRQHSWFRKKHPPAEAPVPIPPSPDTKDRWRSMTVVPYLEDLHGADEDEDLFDIEDDIIYTQDFTVPGQVPEEEASHNGQRRGLPKAVCMNGTEAAQLSTKSRAEGRAPNPARKACSASSKIRRLSACKQQ [V66L] gave an STK11 functional score of 1.1 ± 0.11.
Variant MEVVDPQQLGMFTEGELMSVGMDTFIHRIDSTEVIYQPRRKRAKLIGKYLMGDLLGEGSYGKVKEHLDSETLCRRAVKILKKKKLRRIPNGEANVKKEIQLLRRLRHKNVIQLVDVLYNEEKQKMYMVMEYCVCGMQEMLDSVPEKRFPVCQAHGYFCQLIDGLEYLHSQGIVHKDIKPGNLLLTTGGTLKISDLGVAEALHPFAADDTCRTSQGSPAFQPPEIANGLDTFSGFKVDIWSAGVTLYNITTGLYPFEGDNIYKLFENIGKGSYAIPGDCGPPLSDLLKGMLEYEPAKRFSIRQIRQHSWFRKKHPPAEAPVPIPPSPDTKDRWRSMTVVPYLEDLHGADEDEDLFDIEDDIIYTQDFTVPGQVPEEEASHNGQRRGLPKAVCMNGTEAAQLSTKSRAEGRAPNPARKACSASSKIRRLSACKQQ [V66H] has an STK11 functional score of 1.37 ± 0.19.
